{
  "source": "the RNAGym collection of RNA variant scans (doi:10.1073/pnas.2313332121)",
  "parents": {"B1": {"name": "TPR t1 (parent)", "chain": "GACCAAUCUGCCCUCAGAGCUCGAGAACAUCUUCGGAUGCAGAGGAGGCAGGCUUCGGUGGCGCGAUAGCGCCAACGUCCUCAACCUCCAAUGCAUCCCACCACAUGAUGAUGCCUGAAGAGCCUUGGUUUUUUG"}},
  "data": [
    {"variants_of": "B1", "test": "polymerase ribozyme fitness, log enrichment relative to wild type (log ratio); higher = more active; in vitro selection for triplet polymerase activity", "outline": "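Fitness compares each genotype's enrichment to that of the wild type on a logarithmic scale, averaging replicates with inverse-variance weights. The logarithm is base 2. Enrichment came from Illumina sequencing of input and output libraries after one triplicate round of in vitro selection, which included frozen incubation at −7 °C, of PCR-built, transcribed mutant libraries of each subunit of a heterodimeric triplet polymerase ribozyme. Only genotypes with ≥10 input reads and ≥1 read per output were kept.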", "values": [
      {"variant": "GACCAAUCUGCCCUCAGAGCUCGAGAACAUCUUCGGAUGAAGAGGAGGCAGGCUUCGGUGGCGCGAUAGCGCCAACGUCCUCAACCUCUAAUGCAUCCCACCACAUGAUGAUGCCUAAAGGGCCUUGGUUUUUUG", "note": "[C40A C89U G117A A121G]", "polymerase ribozyme fitness (log ratio)": -0.101},
      {"variant": "GACCAAUCUGCCCUCAGAGCUCGAGAACAUCUUCGGAUGAAGAGGAGGCAGGCUUCGGUGGCGCGAUAGCGCCAACGUCCUCAACCUCGAAUGCAUCCCACCACAGGAUGAUGCCUGAAGAGUCUUGGUUUUUUG", "note": "[C40A C89G U106G C123U]", "polymerase ribozyme fitness (log ratio)": -5.55},
      {"variant": "GACCAAUCUGCCCUCAGAGCUCGAGAACAUCUUCGGAUGAAGAGUAGGCAGGCUUCGGUGGCGCGAUAGCGCCAACGUCCUCAACCUCCGAUGCAUCCCACCACAUGAUGAUGCCUGAAGAGCCUUGGUUUUUUG", "note": "[C40A G45U A90G]", "polymerase ribozyme fitness (log ratio)": -1.17},
      {"variant": "GACCAAUCUGCCCUCAGAGCUCGAGAACAUCUUCGGAUGAAGAGGAAGCAGGCUUCGGUAGCGCGAUAGCGCCAUCGUCCUCAACUUCCAAUGCAUUCCACCACAUGAUGAUGCCUGAAGAGACUUGGUUUAUUG", "note": "[C40A G47A G60A A75U C86U C97U C123A U132A]", "polymerase ribozyme fitness (log ratio)": -1.57},
      {"variant": "GACCAAUCUGCCCUCAGAGCUCGAGAACAUCUUCGGAUGAAGAGGAGGCAGGCUUCGGUGGCGCGAUAGCGCCAACGUCCUUAACCUCCAAUGCAUCCCACCACAUGAUGAUGCCUGAAGAGCCUUGGUUUUUUG", "note": "[C40A C82U]", "polymerase ribozyme fitness (log ratio)": -1.77},
      {"variant": "GACCAAUCUGCCCUCAGAGCUCGAGAACAUCUUCGGAUGAAGAAUAGGCCGGCUUCGGUGGCGCGAUAGCGCCAACGUCCUCAACCUCCAAUACAUCCCACCACAUGAUGAUGCCUGAAGAGCCUUGGUUUUUUG", "note": "[C40A G44A G45U A50C G93A]", "polymerase ribozyme fitness (log ratio)": -5.29},
      {"variant": "GACCAAUCUGCCCUCAGAGCUCGAGAACAUCUUCGGAUGAAGAGAAGGCAGGCUUCGGUGGCGCGAUAGCGCCAACGUCCUCAACCUCCAAUGCAUCCCACCACAUGAUGAUGCCUGAAGAGCCUUGGUUUUUUG", "note": "[C40A G45A]", "polymerase ribozyme fitness (log ratio)": -2.54},
      {"variant": "GACCAAUCUGCCCUCAGAGCUCGAGAACAUCUUCGGAUGAAGAGGAGGCAGGCUUCGGUGGCGCGAUAGCGGCAACGUCCUCAACCUCCAAUGCAUCCCACCACAUGAUGAUGCCUGAUGAGCCUUGGUCAUUUG", "note": "[C40A C72G A119U U130C U131A]", "polymerase ribozyme fitness (log ratio)": -1.75},
      {"variant": "GACCAAUCUGCCCUCAGAGCUCGAGAACAUCUUCGGAUGAAGACGAGGCAGGCUUCGGUGGCGCGAUAGCGGCAACGUCCUCAACCUCCAAUGCAUCCCACCACAUGAUGAUGCCUGAAGAGCCUUAGUUUUUUG", "note": "[C40A G44C C72G G127A]", "polymerase ribozyme fitness (log ratio)": -4.18},
      {"variant": "GACCAAUCUGCCCUCAGAGCUCGAGAACAUCUUCGGAUGAAGAGGAGGCAGGCUUCGGUGGCGCGAUAGCGCCAACGUCUUCAACCUCUAAUGCAUCCCACCACAUGAUGAUGCCUAAAGGGCCUUGGUUUUUUG", "note": "[C40A C80U C89U G117A A121G]", "polymerase ribozyme fitness (log ratio)": -0.909},
      {"variant": "GACCAAUCUGCCCUCAGAGCUCGAGAACAUCUUCGGAUGAAGAGGAGGCAGGCUUCGGUGGCGCGAUAGCGCCAACGUCCUCAACCUCUAAUGCAUCCCACCACAUGAUGAUGCCUGAAGAGCCUUGGUUUUUUG", "note": "[C40A C89U]", "polymerase ribozyme fitness (log ratio)": -0.912},
      {"variant": "GACCAAUCUGCCCUCAGAGCUCGAGAACAUCUUCGGAUGAAGAGUAGGCAGGCUUCGGUGGCGCGAUAGCGCCAACGUCCUCAACCUCCAAUGCAUCCCACCACAUGAUGAUGCCUGAAGAUCCUUGGUUUUUUG", "note": "[C40A G45U G122U]", "polymerase ribozyme fitness (log ratio)": -2.79},
      {"variant": "GACCAAUCUGCCCUCAGAGCUCGAGAACAUCUUCGGAUGAAGAGUAGGCAGGCUUCGGUGGCGCGAUAGCGCCAACGUCCUCAACCUCCAAUGCAUCCCACCACAUGAUAAUGCCUGAAGAGCCUUGGUUUUUUG", "note": "[C40A G45U G110A]", "polymerase ribozyme fitness (log ratio)": -4.4},
      {"variant": "GACCAAUCUGCCCUCAGAGCUCGAGAACAUCUUCGGAUGAAGAGGAGCCAGGCUUCGGUGGCGCGAUAGCGCCAACGUCCUCAACCUCCAAUGCAUCCCACCACAUGAUGAUGCCUGAAGCGCCUUGGGUUUUUG", "note": "[C40A G48C A121C U129G]", "polymerase ribozyme fitness (log ratio)": -0.25},
      {"variant": "GACCAAUCUGCCCUCAGAGCUCGAGAACAUCUUCGGAUGAAGAGGAGGCAGGCUUCGGUGGCGCGAUAGCGCCAACGUCCUCAACCUCCAAUGCAUCCCACUACAUGAUGAUGCCUGAAGAGCCUUGGUUUUUUG", "note": "[C40A C102U]", "polymerase ribozyme fitness (log ratio)": -3.15},
      {"variant": "GACCAAUCUGCCCUCAGAGCUCGAGAACAUCUUCGGAUGAAGAGGAGGCAGGCUUCGGUGGCGCGAUAGCGCCAACGUCCUAAACCUCCAAAGCAUCCCACAACAUGAUGAUGCCUGAAGAGCUUUGGUUUUUUG", "note": "[C40A C82A U92A C102A C124U]", "polymerase ribozyme fitness (log ratio)": -4.16},
      {"variant": "GACCAAUCUGCCCUCAGAGCUCGAGAACAUCUUCGGAUGAAGAGGAGGCAGGCUUCGGUGGCGCGAUAGCGGCAACGUCCUCAACCUCCAAUGCAUCCCACCACAUGGUGAUGCCUGAAGAGCCUUGGUUUUUUG", "note": "[C40A C72G A108G]", "polymerase ribozyme fitness (log ratio)": -4.46},
      {"variant": "GACCAAUCUGCCCUCAGAGCUCGAGAACAUCUUCGGAUGAAUAGUAGGCAGGCUUGGGUGGCGCGAUAGCGCUAACGUCCUCAACCUCCAAUGCAUCCCACCACAUGAUGAUGCCUGAAGAGCCUUGGUUUUUUG", "note": "[C40A G42U G45U C56G C73U]", "polymerase ribozyme fitness (log ratio)": -4.17},
      {"variant": "GACCAAUCUGCCCUCAGAGCUCGAGAACAUCUUCGGAUGAAGAGGAGGCAGGCUUCGGUGGCGCGAUAGCGCCAACGUCCUCAACUUCCAAUGCAUCCCACCACAUGAUGAUGCCUGAAGAGCCUUGGUUUUUUG", "note": "[C40A C86U]", "polymerase ribozyme fitness (log ratio)": -1.9},
      {"variant": "GACCAAUCUGCCCUCAGAGCUCGAGAACAUCUUCGGAUGAAUAGGAGGCAGGCUUCGGUGGCGCGAUAGCGCCAACCUCCUCAACCUCCAAUGCAUCCCACCACAUGAUGAUGCCUGAAGAGCCUUGGUUUUUUG", "note": "[C40A G42U G77C]", "polymerase ribozyme fitness (log ratio)": -2.77},
      {"variant": "GACCAAUCUGCCCUCAGAGCUCGAGAACAUCUUCGGAUGAAGAGGAGGCAGGCUUCGGUGGCGCGAUAGCGCCAAUGUCCUCAACCUCCAAUGCAUCCCACCACAUGAUGAUGCCUGAAGAGCCUUGGUUUUUUG", "note": "[C40A C76U]", "polymerase ribozyme fitness (log ratio)": -1.15}
    ]}
  ]
}
